Assay results taken from publication PMC12304850, “Interfacing B‐DNA and DNA Mimic Foldamers”.

T1: SAP1 (UniProt P28324 1-93)
T1 sequence: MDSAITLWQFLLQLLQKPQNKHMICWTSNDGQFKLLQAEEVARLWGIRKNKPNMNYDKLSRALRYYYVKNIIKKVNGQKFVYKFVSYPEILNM

B1: 27 (dsDNA)
DNA 1: GACAGCATGTG
DNA 2: CACATGCTGTC
B2: 26 (dsDNA)
DNA 1: GACAGGATGTG
DNA 2: CACATCCTGTC

Key:
PU.1 = PU.1 (UniProt P17947 165-270); assay: BLI; BLI on streptavidin biosensors; buffer with NaCl (concentration not in material), 0.01 mM EDTA, 0.05% Tween 20; pH and temperature not in material
SAP1 = target: T1, SAP1; assay: as above; settings: protein: recombinant, label: biotin

Row | Binder | Kd (PU.1) [nM] | binding result (SAP1; duplex) | Kd (SAP1; 11-bp duplex, hybridized on immobilized ssDNA) [nM]
1 | B1 | 1600 | no binding | –
2 | B2 | 330 | – | 1080 ± 6
